Assay [1] deals with T1, recombinant human RSPO1-Fc fusion protein (human, UniProt Q2MKA7 21-263).
T1 construct: not shown: human Fc region
In words: SPR (Biacore 2000), RSPO1-Fc immobilized on CM5 chip, antibody injected 100 nM to 0.78 nM. The method, then: (§1) The KD of h89M5-H2L2 was determined using a Biacore 2000 system from Biacore LifeSciences (GE Healthcare). Recombinant human RSPO1-Fc or mouse RSPO1-Fc proteins were immobilized on CM5 chips using standard amine-based chemistry (NHS/EDC). The antibodies were serially diluted 2-fold from 100 nM to 0.78 nM in HBS-P (0.01M HEPES pH7.4, 0.15M NaCl, 0.005% v/v Surfactant P20) and were injected over the chip surface. Kinetic data were collected over time and were fit using the simultaneous global fit equation to yield affinity constants (KD values) for each antibody.

In assay [2] the target is T2, recombinant mouse RSPO1-Fc protein (mouse, UniProt Q9Z132 21-265, limits assumed).
T2 construct: Construct not described; not shown: Fc; not described
Described as above. The method, then: as §1

T1 sequence (Q2MKA7 21-263): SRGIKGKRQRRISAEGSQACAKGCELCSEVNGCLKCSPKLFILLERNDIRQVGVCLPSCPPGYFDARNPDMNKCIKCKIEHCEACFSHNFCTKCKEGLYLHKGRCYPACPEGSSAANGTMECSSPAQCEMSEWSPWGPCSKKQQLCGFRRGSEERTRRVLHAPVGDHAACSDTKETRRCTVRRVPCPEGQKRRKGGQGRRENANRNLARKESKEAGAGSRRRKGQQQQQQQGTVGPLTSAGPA
T2 sequence (Q9Z132 21-265 limits assumed): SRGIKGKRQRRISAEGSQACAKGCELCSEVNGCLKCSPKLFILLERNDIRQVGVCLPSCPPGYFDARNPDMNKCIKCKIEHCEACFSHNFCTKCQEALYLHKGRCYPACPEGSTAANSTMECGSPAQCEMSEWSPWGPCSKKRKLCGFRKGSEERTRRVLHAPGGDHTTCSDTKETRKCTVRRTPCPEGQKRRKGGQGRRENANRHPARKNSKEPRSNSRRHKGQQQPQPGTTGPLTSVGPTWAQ

B1: humanized anti-RSPO1 antibody h89M5-H2L2 (antibody, human IgG2, kappa, V domains shown)
VH: QVQLVQSGAEVKKPGASVKVSCKTSGYTFTGYTMHWVRQAPGQRLEWMGGINPNNGGTTYNQNFKGRVTITRDTSASTAYMELSSLRSEDTAVYYCARKEFSDGYYFFAYWGQGTLVTVSS
VL: DIQMTQSPSSLSASVGDRVTITCKASQDVIFAVAWYQQKPGKAPKLLIYWASTRHTGVPSRFSGSGSGTDYTLTISSLQPEDFATYYCQQHYSTPWTFGGGTKVEIKR
notes: also called humanized 89M5; 89M5-H2 with 89M5-L2
B1: the Kd in assay [1] and in assay [2] was less than 0.1 nM each time.

(Values after patent US20160002344A1 (ONCOMED PHARMACEUTICALS, published 2016).)
